{"source": "paper PMC2908255", "target": "Erk2 (UniProt P63086)", "assay": "ITC"}
{"substance": "HePTP 15-339 (includes the KIM) (domain or fragment)", "values": [{"measurement": "Kd", "result": 549, "unit": "nM"}, {"measurement": "dH", "result": -10.8, "unit": "kcal/mol"}, {"measurement": "stoichiometry N", "result": 0.95}]}
